Results reported in patent publication US20160060317A1.

Target: receptors for neurturin on the cell surface of human neuroblastoma cell line TGW (JCRB0618)
Experiment: cell-based or functional assay

| Binder | biological activity in vitro (tyrosine hydroxylase reporter gene, luciferase, TGW cells), EC50 [ng/ml] | reporter gene activity (luciferase, SRE reporter in TGW cells), EC50 [ng/mL] |
| --- | --- | --- |
| human recombinant neurturin (unmodified protein), Q99748 96-197 (ligand) ARLGARPCGLRELEVRVSELGLGYASDETVLFRYCAGACEAAARVYDLGLRRLRQRRRLRRERVRAQPCCRPTAYEDEVSFLDAHSRYHTVHELSARECACV | 2.2 | – |
| mono-CES0310-neurturin, Q99748 96-197; Q99748 96-197 (ligand, here or on the partner: six-arm branched PEG of about 5 kDa on the N-terminal amino acid) chain 1: ARLGARPCGLRELEVRVSELGLGYASDETVLFRYCAGACEAAARVYDLGLRRLRQRRRLRRERVRAQPCCRPTAYEDEVSFLDAHSRYHTVHELSARECACV chain 2: ARLGARPCGLRELEVRVSELGLGYASDETVLFRYCAGACEAAARVYDLGLRRLRQRRRLRRERVRAQPCCRPTAYEDEVSFLDAHSRYHTVHELSARECACV | – | 12 |

More lines, now with the values ahead:

| biological activity in vitro (tyrosine hydroxylase reporter gene, luciferase, TGW cells), EC50 [ng/ml] | reporter gene activity (luciferase, SRE reporter in TGW cells), EC50 [ng/mL] | Binder |
| --- | --- | --- |
| – | 7.4 | mono-mPEG-CHO-neurturin, Q99748 96-197; Q99748 96-197 (ligand, here or on the partner: linear 5 kDa polyethylene glycol butyraldehyde-derived PEG on the N-terminal amino acid) chain 1: ARLGARPCGLRELEVRVSELGLGYASDETVLFRYCAGACEAAARVYDLGLRRLRQRRRLRRERVRAQPCCRPTAYEDEVSFLDAHSRYHTVHELSARECACV chain 2: ARLGARPCGLRELEVRVSELGLGYASDETVLFRYCAGACEAAARVYDLGLRRLRQRRRLRRERVRAQPCCRPTAYEDEVSFLDAHSRYHTVHELSARECACV |
| – | 9.7 | mono-mPEG-NHS-neurturin, Q99748 96-197; Q99748 96-197 (ligand, here or on the partner: about 5 kDa linear PEG (mPEG-succinimidyl succinat reagent, NHS-method) on the N-terminal amino acid) chain 1: ARLGARPCGLRELEVRVSELGLGYASDETVLFRYCAGACEAAARVYDLGLRRLRQRRRLRRERVRAQPCCRPTAYEDEVSFLDAHSRYHTVHELSARECACV chain 2: ARLGARPCGLRELEVRVSELGLGYASDETVLFRYCAGACEAAARVYDLGLRRLRQRRRLRRERVRAQPCCRPTAYEDEVSFLDAHSRYHTVHELSARECACV |
